The record followed here is the Immune Epitope Database (IEDB).

In general, Kd refers to the free concentration of one partner at which half of the binding sites on the other are occupied at equilibrium, for simple one-to-one binding.

Targets include HLA-A*31:01; HLA-A*68:01; HLA-A*11:01; HLA-A*33:01; HLA-A*03:01.
Common to all, as to test: IEDB peptide-MHC binding, purified MHC/competitive/radioactivity; filed as Kd, often an IC50 or EC50 that approximates it; ≥ and ≤ were set here for values at or beyond the usual limits of such assays
Common to all, as to details: source organism: Homo sapiens

Take LLGPGRPYR: the Kd with HLA-A*31:01 is 11 nM; with HLA-A*68:01, 1090 nM; in the assay with HLA-A*11:01 it was 656 nM; with HLA-A*33:01, 106 nM; with HLA-A*03:01, 570 nM.

As for MSLQRQFLR, the Kd with HLA-A*31:01 is 8.3 nM; in the assay with HLA-A*68:01, 8.5 nM; with HLA-A*11:01, 8.3 nM; with HLA-A*33:01 it was 14 nM; with HLA-A*03:01, 54 nM.
